Columns and labels:
Type in all cases: biochemical
[1] = HTP-analysis of yeast culture supernatants, no challenge (MUGal hydrolysis); settings: activity of the variant/activity of Rd3BB (SEQ ID NO: 13)
Summary of the method: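 GLA variants were expressed in INVSc1 yeast grown in SD-Ura broth with glucose at 30° C., and culture supernatants were collected after 66-84 h. Supernatant was mixed with McIlvaine buffer pH 4.8 and MUGal (2 mM stock) in 50 mM citrate, 200 mM KCl, pH 4.6, incubated at 37° C. for 30-180 minutes, then quenched with sodium carbonate.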

[2] = HTP-analysis of supernatants pretreated with acid (MUGal hydrolysis); settings: activity of the variant/activity of Rd3BB (SEQ ID NO: 13); for Relative Activity of GLA Variants After Challenge at pH 3.3: yeast supernatant
Summary of the method: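 Supernatants from INVSc1 yeast secreting GLA variants were challenged at 37° C. for 1-3 h in McIlvaine buffer at pH 3.3-4.3. Residual activity was then measured on 4 mM MUGal substrate stock at pH 4.8 with citrate buffer pH 4.3, over 30-180 min at 37° C. Reactions were quenched with sodium carbonate and read by fluorescence (Ex 355/Em 448 nm).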

[3] = HTP-analysis of supernatants pretreated with base (MUGal hydrolysis); settings: activity of the variant/activity of Rd3BB (SEQ ID NO: 13), challenge at pH 9.7
Summary of the method: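 GLA variants were secreted by transformed INVSc1 yeast grown 66-84 h at 30° C. Supernatants were exposed to neutral-to-basic buffers (pH 7.0-9.7) at 37° C for 1-18 h, then assayed with MUGal in acidic citrate/McIlvaine buffer, with fluorescence read after quenching.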

Row | Molecule | Relative Activity of GLA Variants After No Challenge (NC) [1] | Relative Activity of GLA Variants After Challenge at pH 3.7 ([2]; challenge at pH 3.7) | Relative Activity of GLA Variants After Challenge at pH 9.7 [3] | Relative Activity of GLA Variants After No Challenge (NC) ([1]; yeast supernatant) | Relative Activity of GLA Variants After Challenge at pH 3.3 [2] | Relative Activity of GLA Variants After Challenge at pH 9.7 ([3]; yeast supernatant)
1 | 546 (protein, Synthetic Polypeptide sequence of Variant No. 546 of mature Human GLA) LDNGLARTPTMGWLHWERFMCNLDCQEEPDSCISEKLFMEMAERMVSEGWKDAGYEYLCIDDCWMAPQRDSEGRLQADPQRFPHGIRQLANHVHSKGLKLGIYADVGNKTCAGFPGSFGYYDIDAQTFADWGVDLLKFDGCYCDSLENLADGYKHMSLALNRTGRSIVYSCEWPLYMWPFQKPNYTEIRQYCNHWRNFADIDDSWASIKSILDWTSRNQERIVDVAGPGGWNDPDMLVIGNFGLSWDQQVTQMALWAIMAAPLFMSNDLRHISPQAKALLQDKDVIAINQDPLGEQGYQLRKGDNFEVWERPLSGDAWAVAIINRQEIGGPRSYTIPVASLGKGVACNPACFITQLLPVKRQLGFYNWTSRLKSHINPTGTVLLQLENTMQMSLKDLL | + (+ = 1.5 to 5 relative activity over Rd3BB (SEQ ID NO: 13)) | +++ (+++ = >10 relative activity over Rd3BB (SEQ ID NO: 13)) | ++ (++ = >5 to 10 relative activity over Rd3BB (SEQ ID NO: 13)) | – | – | –
2 | 633 (protein, Synthetic Polypeptide sequence of Variant No. 633 of mature Human GLA) LDNGLARTPTMGWLHWERFMCNLDCQEEPDSCISEKLFMEMADRMVSEGWKDAGYEYLCIDDCWMAPQRDSEGRLQADPQRFPHGIRQLANSVHSKGLKLGIYADVGNKTCAGFPGSFGYYDIDAQTFADWGVDLLKFDGCYCDSLENLADGYKHMSLALNRTGRPIVYSCEWPLYMWPFQKPNYTEIRQYCNHWRNFADIDDSWASIKSILDWTSRNQERIVDVAGPGGWNDPDMLVIGNFGLSWDQQVTQMALWAIMAAPLFMSNDLRHISPQAKALLQDKDVIAINQDPLGKQGYQLRKGDNFEVWERPLSGDAWAVAIINRQEIGGPRSYTIPVASLGKGVACNPACFITQLLPVKRQLGFYNWTSRLKSHINPTGTVLLQLENTMQMSLKDLL | – | – | – | + (+ = 1.5 to 5 relative activity over Rd3BB (SEQ ID NO: 13)) | ++ (++ = >5 to 10 relative activity over Rd3BB (SEQ ID NO: 13)) | ++ (++ = >5 to 10 relative activity over Rd3BB (SEQ ID NO: 13))
3 | 634 (protein, Synthetic Polypeptide sequence of Variant No. 634 of mature Human GLA) LDNGLARTPTMGWLHWERFMCNLDCQEEPDSCISEKLFMEMADRMVSEGWKDAGYEYLCIDDCWMAPQRDSEGRLQADPQRFPHGIRQLANEVHSKGLKLGIYADVGNKTCAGFPGSFGYYDIDAQTFADWGVDLLKFDGCYCDSLENLADGYKHMSLALNRTGRPIVYSCEWPLYMWPFQKPNYTEIRQYCNHWRNFADIDDSWASIKSILDWTSRNQERIVDVAGPGGWNDPDMLVIGNFGLSWDQQVTQMALWAIMAAPLFMSNDLRHISPQAKALLQDKDVIAINQDPLGKQGYQLRKGDNFEVWERPLSGDAWAVAIINRQEIGGPRSYTIPVASLGKGVACNPACFITQLLPVKRQLGFYNWTSRLKSHINPTGTVLLQLENTMQMSLKDLL | – | – | – | + (+ = 1.5 to 5 relative activity over Rd3BB (SEQ ID NO: 13)) | ++ (++ = >5 to 10 relative activity over Rd3BB (SEQ ID NO: 13)) | ++ (++ = >5 to 10 relative activity over Rd3BB (SEQ ID NO: 13))
4 | 610 (protein, Synthetic Polypeptide sequence of Variant No. 610 of mature Human GLA) LDNGLARTPTMGWLHWERFMCNLDCQEEPDSCISEKLFMEMAERMVTEGWKDAGYEYLCIDDCWMAPQRDSEGRLQADPQRFPHGIRQLANHVHSKGLKLGIYADVGNKTCAGFPGSFGYYDIDAQTFADWGVDLLKFDGCYCDSLENLADGYKHMSLALNRTGRPIVYSCEWPLYMWPFQKPNYTEIRQYCNHWRNFADIDDSWASIKSILDWTSRNQERIVDVAGPGGWNDPDMLVIGNFGLSWDQQVTQMALWAIEAAPLFMSNDLRHISPQAKALLQDKDVIAINQDPLGKQGYQLRKGDNFEVWERPLSGDAWAVAIINRQEIGGPRSYTIPVASLGKGVACNPACFITQLLPVKRQLGFYNWTSRLKSHINPTGTVLLQLENTQQMSLKDLL | – | – | – | + (+ = 1.5 to 5 relative activity over Rd3BB (SEQ ID NO: 13)) | + (+ = 1.5 to 5 relative activity over Rd3BB (SEQ ID NO: 13)) | − (− = <1.5 relative activity to Rd3BB (SEQ ID NO: 13))
5 | 611 (protein, Synthetic Polypeptide sequence of Variant No. 611 of mature Human GLA) LDNGLARTPTMGWLHWERFMCNLDCQEEPDSCISEKLFMEMAERMVSEGWKDAGYEYLCIDDCWMAPQRDSEGRLQADPQRFPHGIRQLANHVHSKGLKLGIYADVGNKTCAGFPGSFGYYDIDAQTFADWGVDLLKFDGCYCDSLENLADGYKHMSLALNRTGRPIVYSCEWPLYMWPFQKPNYTEIRQYCNHWRNFADIDDSWASIKSILDWTSRNQERIVDVAGPGGWNDPDMLVIGNFGLSWDQQVTQMALWAIMAAPLFMSNDLRHISPQAKALLQDKDVIAINQDPLGKQGYQLRKGDNFEVWERPLSGDAWAVAIINRQEIGGPRSYTIPVASLGKGVACNPACFITQLLPVKRQLGFYNWTSRLKSHINPTGTVLLQLENTQQMSLKDLL | – | – | – | + (+ = 1.5 to 5 relative activity over Rd3BB (SEQ ID NO: 13)) | +++ (+++ = >10 relative activity over Rd3BB (SEQ ID NO: 13)) | ++ (++ = >5 to 10 relative activity over Rd3BB (SEQ ID NO: 13))
6 | 613 (protein, Synthetic Polypeptide sequence of Variant No. 613 of mature Human GLA) LDNGLARTPTMGWLHWERFMCNLDCQEEPDSCISEKLFMEMAERMVNEGWKDAGYEYLCIDDCWMAPQRDSEGRLQADPQRFPHGIRQLANHVHSKGLKLGIYADVGNKTCAGFPGSFGYYDIDAQTFADWGVDLLKFDGCYCDSLENLADGYKHMSLALNRTGRPIVYSCEWPLYMWPFQKPNYTEIRQYCNHWRNFADIDDSWASIKSILDWTSRNQERIVDVAGPGGWNDPDMLVIGNFGLSWDQQVTQMALWAIMAAPLFMSNDLRAISPQAKALLQDKDVIAINQDPLGKQGYQLRKGDNFEVWERPLSGDAWAVAIINRQEIGGPRSYTIPVASLGKGVACNPACFITQLLPVKRQLGFYNWTSRLKSHINPTGTVLLQLENTQQMSLKDLL | – | – | – | + (+ = 1.5 to 5 relative activity over Rd3BB (SEQ ID NO: 13)) | ++ (++ = >5 to 10 relative activity over Rd3BB (SEQ ID NO: 13)) | ++ (++ = >5 to 10 relative activity over Rd3BB (SEQ ID NO: 13))
7 | 614 (protein, Synthetic Polypeptide sequence of Variant No. 614 of mature Human GLA) LDNGLARTPTMGWLHWERFMCNLDCQEEPDSCISEKLFMEMAERMVTEGWKDAGYEYLCIDDCWMAPQRDSEGRLQADPQRFPHGIRQLANHVHSKGLKLGIYADVGNKTCAGFPGSFGYYDIDAQTFADWGVDLLKFDGCYCDSLENLADGYKHMSLALNRTGRPIVYSCEWPLYMWPFQKPNYTEIRQYCNHWRNFADIDDSWASIKSILDWTSRNQERIVDVAGPGGWNDPDMLVIGNFGLSWDQQVTQMALWAIMAAPLFMSNDLRHISPQAKALLQDKDVIAINQDPLGKQGYQLRKGDNFEVWERPLSGDAWAVAIINRQEIGGPRSYTIPVASLGKGVACNPACFITQLLPVKRQLGFYNWTSRLKSHINPTGTVLLQLENTMQMSLKDLL | – | – | – | + (+ = 1.5 to 5 relative activity over Rd3BB (SEQ ID NO: 13)) | ++ (++ = >5 to 10 relative activity over Rd3BB (SEQ ID NO: 13)) | ++ (++ = >5 to 10 relative activity over Rd3BB (SEQ ID NO: 13))
8 | 615 (protein, Synthetic Polypeptide sequence of Variant No. 615 of mature Human GLA) LDNGLARTPTMGWLHWERFMCNLDCQEEPDSCISEKLFMEMAERMVNEGWKDAGYEYLCIDDCWMAPQRDSEGRLQADPQRFPHGIRQLANHVHSKGLKLGIYADVGNKTCAGFPGSFGYYDIDAQTFADWGVDLLKFDGCYCDSLENLADGYKHMSLALNRTGRPIVYSCEWPLYMWPFQKPNYTEIRQYCNHWRNFADIDDSWASIKSILDWTSRNQERIVDVAGPGGWNDPDMLVIGNFGLSWDQQVTQMALWAIMAAPLFMSNDLRHISPQAKALLQDKDVIAINQDPLGKQGYQLRKGDNFEVWERPLSGDAWAVAIINRQEIGGPRSYTIPVASLGKGVACNPACFITQLLPVKRQLGFYNWTSRLKSHINPTGTVLLQLENTHQMSLKDLL | – | – | – | + (+ = 1.5 to 5 relative activity over Rd3BB (SEQ ID NO: 13)) | ++ (++ = >5 to 10 relative activity over Rd3BB (SEQ ID NO: 13)) | ++ (++ = >5 to 10 relative activity over Rd3BB (SEQ ID NO: 13))

Reference: patent US11278600B2, “Human alpha-galactosidase variants” (Codexis, Inc., priority 2014, dated 2022)
